In publication PMC6378684 (Journal of Molecular Biology, 2019):
One block for each molecule: values may come before it.

How the values were obtained:
[1] = biological target: T1, Cut7MD (fission yeast kinesin-5 Cut7 motor domain) (Schizosaccharomyces pombe, UniProt P24339); test: cryo-EM structure, […] Å; assay type: binding; conditions: nucleotide pocket, with Mg; bound to S. pombe microtubules
T1 construct: monomeric motor domain, residues 67-432, lacks N-terminal extension; His6 tag removed by TEV; expressed in E. coli BL21*(DE3)
T1 sequence (P24339 67-432): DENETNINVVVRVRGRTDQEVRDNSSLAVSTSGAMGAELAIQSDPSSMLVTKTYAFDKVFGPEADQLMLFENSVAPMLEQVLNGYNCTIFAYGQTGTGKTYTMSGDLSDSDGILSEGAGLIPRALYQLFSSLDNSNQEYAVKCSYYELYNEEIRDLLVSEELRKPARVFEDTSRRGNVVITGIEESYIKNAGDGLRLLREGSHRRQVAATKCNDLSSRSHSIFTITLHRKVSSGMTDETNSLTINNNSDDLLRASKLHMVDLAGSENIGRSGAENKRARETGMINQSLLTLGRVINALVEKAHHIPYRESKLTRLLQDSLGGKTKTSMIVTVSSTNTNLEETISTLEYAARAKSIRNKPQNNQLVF

[2] = biological target: T1, Cut7MD (fission yeast kinesin-5 Cut7 motor domain); test: microtubule-stimulated ATPase, pyruvate kinase / lactate dehydrogenase coupled; assay type: biochemical; conditions: 5 mM ATP; epothilone-stabilised S. pombe microtubules; 1 mM MgCl2, pH 8.0, 32 °C
[3] = biological target: T1, Cut7MD (fission yeast kinesin-5 Cut7 motor domain); test: microtubule-stimulated steady-state ATPase, enzyme-coupled; assay type: biochemical; conditions: 3.8 μM motor; 100 nM mammalian (bovine) microtubules
[4] = biological target: S. pombe tubulin microtubules (Sp_tub MTs), epothilone-stabilised (S. pombe) (UniProt P04688)
[5] = biological target: Mammalian brain tubulin microtubules (Mam_tub MTs), paclitaxel-stabilised (bovine), Q6B856
Sequence of Mammalian brain tubulin microtubules (Mam_tub MTs), paclitaxel-stabilised (bovine), Q6B856 (Q6B856 whole entry, looked up): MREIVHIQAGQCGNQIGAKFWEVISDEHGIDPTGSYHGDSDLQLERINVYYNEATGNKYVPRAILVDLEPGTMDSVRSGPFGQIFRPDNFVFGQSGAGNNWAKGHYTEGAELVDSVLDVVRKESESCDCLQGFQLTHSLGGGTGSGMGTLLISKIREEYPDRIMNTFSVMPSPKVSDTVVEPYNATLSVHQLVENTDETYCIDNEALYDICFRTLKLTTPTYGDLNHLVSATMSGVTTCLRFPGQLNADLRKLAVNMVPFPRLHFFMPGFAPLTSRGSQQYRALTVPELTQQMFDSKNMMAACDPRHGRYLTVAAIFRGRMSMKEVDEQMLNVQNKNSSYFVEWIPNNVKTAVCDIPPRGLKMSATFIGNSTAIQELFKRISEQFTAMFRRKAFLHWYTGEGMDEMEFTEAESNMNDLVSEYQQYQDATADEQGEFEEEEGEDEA

Sequence of S. pombe tubulin microtubules (Sp_tub MTs), epothilone-stabilised (S. pombe) (P04688 whole entry, chain 1 of 2): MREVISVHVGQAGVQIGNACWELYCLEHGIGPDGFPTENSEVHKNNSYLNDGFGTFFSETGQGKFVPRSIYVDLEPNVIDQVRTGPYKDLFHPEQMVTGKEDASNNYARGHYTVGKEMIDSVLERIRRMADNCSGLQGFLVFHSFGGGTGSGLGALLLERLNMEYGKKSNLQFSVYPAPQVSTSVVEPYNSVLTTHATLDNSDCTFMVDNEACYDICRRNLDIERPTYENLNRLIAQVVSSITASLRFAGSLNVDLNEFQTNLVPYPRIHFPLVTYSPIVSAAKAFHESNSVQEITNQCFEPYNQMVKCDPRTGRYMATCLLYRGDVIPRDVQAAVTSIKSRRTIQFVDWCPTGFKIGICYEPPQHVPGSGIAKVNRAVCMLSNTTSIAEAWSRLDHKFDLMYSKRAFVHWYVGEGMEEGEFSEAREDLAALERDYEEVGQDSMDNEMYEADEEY
Sequence of S. pombe tubulin microtubules (Sp_tub MTs), epothilone-stabilised (S. pombe) (P05219 whole entry, chain 2 of 2, further chain): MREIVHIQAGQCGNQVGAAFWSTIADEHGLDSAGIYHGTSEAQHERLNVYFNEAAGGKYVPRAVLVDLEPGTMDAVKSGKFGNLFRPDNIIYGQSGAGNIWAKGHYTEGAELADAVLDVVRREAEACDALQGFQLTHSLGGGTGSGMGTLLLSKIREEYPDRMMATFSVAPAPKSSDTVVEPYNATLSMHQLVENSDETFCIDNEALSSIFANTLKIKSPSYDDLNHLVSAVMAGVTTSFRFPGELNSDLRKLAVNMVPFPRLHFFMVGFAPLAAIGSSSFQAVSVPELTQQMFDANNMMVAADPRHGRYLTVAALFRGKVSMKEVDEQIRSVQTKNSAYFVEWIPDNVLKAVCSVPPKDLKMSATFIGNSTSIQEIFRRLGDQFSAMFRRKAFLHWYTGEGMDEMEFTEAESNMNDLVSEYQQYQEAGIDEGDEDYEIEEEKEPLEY

Molecule: Nc1ncnc2c1ncn2[C@@H]1O[C@H](COP(=O)(O)OP(=O)(O)NP(=O)(O)O)[C@@H](O)[C@H]1O [AMPPNP, adenosine 5′-(β,γ-imido)triphosphate]
- cryo-EM structure, 4.5 Å [1]: strong density in the nucleotide binding pocket corresponding to bound Mg-AMPPNP

Molecule: Nc1ncnc2c1ncn2[C@@H]1O[C@H](COP(=O)(O)OP(=O)(O)OP(=O)(O)O)[C@@H](O)[C@H]1O [ATP]
- microtubule-stimulated ATPase, pyruvate kinase / lactate dehydrogenase coupled [2]: we measured the steady-state ATPase activity of Cut7MD on Sp_tub MTs and Mam_tub MTs

Molecule: N[C@@H](CSC(c1ccccc1)(c1ccccc1)c1ccccc1)C(=O)O [STLC, (+)-S-trityl-L-cysteine]
- % of their uninhibited rates at 2 μM and 20 μM [3]: Cut7MD is not detectably inhibited by STLC

- K0.5MT of the MT-stimulated steady-state ATPase of Cut7MD (Hanes–Woolf plot) [4]: 13.4 nM
- K0.5MT of the MT-stimulated steady-state ATPase of Cut7MD (Michaelis–Menten fit) [4]: 13.9 nM
- Vmax of the MT-stimulated steady-state ATPase of Cut7MD (Hanes–Woolf plot) [4]: 1.17 ATP/s
- Vmax of the MT-stimulated steady-state ATPase of Cut7MD (Michaelis–Menten fit) [4]: 1.14 ATP/s
Molecule: Cut7 motor domain (Cut7MD), residues 67–432 of the fission yeast kinesin-5 Cut7 (from UniProt P24339 67-432) (domain or fragment)

- K0.5MT of the MT-stimulated steady-state ATPase of Cut7MD (Hanes–Woolf plot) [5]: 14.3 nM
- K0.5MT of the MT-stimulated steady-state ATPase of Cut7MD (Michaelis–Menten fit) [5]: 19.9 nM
- Vmax of the MT-stimulated steady-state ATPase of Cut7MD (Hanes–Woolf plot) [5]: 1.19 ATP/s
- Vmax of the MT-stimulated steady-state ATPase of Cut7MD (Michaelis–Menten fit) [5]: 1.25 ATP/s
B1: Cut7 motor domain (Cut7MD), residues 67–432 of the fission yeast kinesin-5 Cut7, P24339 67-432 (domain or fragment)
chain: DENETNINVVVRVRGRTDQEVRDNSSLAVSTSGAMGAELAIQSDPSSMLVTKTYAFDKVFGPEADQLMLFENSVAPMLEQVLNGYNCTIFAYGQTGTGKTYTMSGDLSDSDGILSEGAGLIPRALYQLFSSLDNSNQEYAVKCSYYELYNEEIRDLLVSEELRKPARVFEDTSRRGNVVITGIEESYIKNAGDGLRLLREGSHRRQVAATKCNDLSSRSHSIFTITLHRKVSSGMTDETNSLTINNNSDDLLRASKLHMVDLAGSENIGRSGAENKRARETGMINQSLLTLGRVINALVEKAHHIPYRESKLTRLLQDSLGGKTKTSMIVTVSSTNTNLEETISTLEYAARAKSIRNKPQNNQLVF
